Reference: publication doi:10.1101/431494, “Conservation of the structural and functional architecture of encapsulated ferritins in bacteria and archaea” (bioRxiv, 2018)
Where “and” joins values, the source holds several entries; their conditions need not be identical. Equal entries are not always repeated.

Tests used:
[1] = molecular target: the molecule itself; assay: native MS; nano-ESI, 100 mM ammonium acetate pH 8.0, ~5 uM (oligomer concentration)
[2] = molecular target: the molecule itself; assay: SEC; analytical size-exclusion chromatography, Superdex 200 16/60, 50 mM Tris-HCl pH 8.0, 150 mM NaCl, calibrated with standards of known molecular weight
[3] = molecular target: the molecule itself; assay: SDS-PAGE (resistance of oligomers to SDS and heat denaturation); SDS-PAGE of the size-exclusion peak fractions
[4] = molecular target: the molecule itself; assay: crystal structure; sitting drop vapour diffusion; Hoch_EncFtn in 0.2 M NaCl, 0.1 M Bis-Tris pH 5.5, 20 % PEG 3350; Pfc_EncFtn in 0.2 M LiSO4, 20 % PEG 3350; molecular replacement with PDB 5DA5

Row | Protein | stoichiometry N [1] | stoichiometry N [2] | stoichiometry N [3] | stoichiometry N [4]
1 | Rhodospirillum rubrum encapsulated ferritin, hexahistidine-tagged variant (natural protein, UniProt Q2RVS1 1-140, looked up) MAQSSNSTHEPLEVLKEETVNRHRAIVSVMEELEAVDWYDQRVDASTDPELTAILAHNRDEEKEHAAMTLEWLRRNDAKWAEHLRTYLFTEGPITAIEAADTAGEGSGGDAAKGATAQGDGSLGIGSLKGEAALARPPRL | 10 |  |  | 
2 | Rhodospirillum rubrum encapsulated ferritin, Strep-tagged variant (natural protein, UniProt Q2RVS1 1-140, looked up, source: recombinant, purified by Strep-Trap column HP) MAQSSNSTHEPLEVLKEETVNRHRAIVSVMEELEAVDWYDQRVDASTDPELTAILAHNRDEEKEHAAMTLEWLRRNDAKWAEHLRTYLFTEGPITAIEAADTAGEGSGGDAAKGATAQGDGSLGIGSLKGEAALARPPRL |  | 10 |  | 
3 | Pyrococcus furiosus encapsulated ferritin domain, residues 1-99, C-terminal StrepII-tagged variant (domain or fragment, UniProt Q8U1L4 1-99, looked up, EncFtn domain (residues 1-99) of the single contiguous EncFtn-encapsulin polypeptide of Pyrococcus furiosus; locus tag printed as Pfc_01575, Pfc_05157 and Pfc_05175; source: E. coli BL21(DE3), purified (Strep-Trap HP); not shown: StrepII, C-terminal, kept) MLSINPTLINRDKPYTKEELMEILRLAIIAELDAINLYEQMARYSEDENVRKILLDVAREEKAHVGEFMALLLNLDPEQVTELKGGFEEVKELTGIEAH |  | 10 and ~20 | 2 | 
4 | Pyrococcus furiosus encapsulated ferritin domain, residues 1-99, C-terminal hexahistidine tagged variant (domain or fragment, UniProt Q8U1L4 1-99, looked up, EncFtn domain (residues 1-99) of the single contiguous EncFtn-encapsulin polypeptide of Pyrococcus furiosus; locus tag printed as Pfc_01575, Pfc_05157 and Pfc_05175; source: E. coli BL21(DE3), purified (HisTrap FF, S200 size-exclusion chromatography); not shown: His6, C-terminal, kept) MLSINPTLINRDKPYTKEELMEILRLAIIAELDAINLYEQMARYSEDENVRKILLDVAREEKAHVGEFMALLLNLDPEQVTELKGGFEEVKELTGIEAH | 10 | ~10 |  | 
5 | Pyrococcus furiosus encapsulated ferritin domain as crystallised (PDB 5N5E) (domain or fragment, UniProt Q8U1L4 1-99, looked up, EncFtn domain (residues 1-99) of the single contiguous EncFtn-encapsulin polypeptide of Pyrococcus furiosus; electron density visible for residues 2-98 in each chain; source: E. coli BL21(DE3), purified; copies: 10) MLSINPTLINRDKPYTKEELMEILRLAIIAELDAINLYEQMARYSEDENVRKILLDVAREEKAHVGEFMALLLNLDPEQVTELKGGFEEVKELTGIEAH |  |  |  | 10
